Measurements: US20260274928A1 (VIR BIOTECHNOLOGY, published 2026)
Numbering of substitutions follows the chain as printed. Read-outs that look alike come from different tables or passages of the source.

B1: S3L17 (antibody, V domains shown)
VH: EVQLVESGGGLVQPGGSLRLSCAASEIIVSSNYMNWVRQAPGKGLEWVSVIYAGGSTFYADSVRGRFTISRDNSKNTLYLQMNSLRPDDTAIYYCARDLGPWGMDVWGQGTTVTVSS
VL: DIQMTQSPSSLSASVGDRVAITCRASHGINNDLAWYQQKPGKVPKLLIYAASTLQSGVPSRFSGSGSGTDFTLTISSLQPEDVATYYCQHYSSDPRFTFGPGTKVDIK
B2: S2K146 Fab (Fab, V domains shown)
VH: QVQLVESGGVVVQPGGSLRLSCAASGFTFHDHTMHWVRQAPGKGLEWVSLITWNGGTIHYSDSVKGRFTISRDNSKNSLYLQMNSLRTEDTALYYCAKDLGRGGWYLPSDAWGQGTLVTVSS
VL: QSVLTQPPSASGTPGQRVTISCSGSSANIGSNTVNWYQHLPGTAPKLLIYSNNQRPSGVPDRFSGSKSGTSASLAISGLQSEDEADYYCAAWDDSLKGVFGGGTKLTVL
B3: S3I2 (antibody, V domains shown)
VH: EVQLVETGGGLIQPGGSLTLSCAASGLVVSYNYMTWVRQAPGKGLEWLSVIYAGGSTFYADSVKGRFTVSRDNSNNTLYLQMNNLRAEDTAVYFCARWGQVRFTSEEAYYKYGLDVWGQGTTVTVSS
VL: DIQLTQSPSFLSASVGDRVTITCRASQGISNYLAWYQQRPGKAPKLLIFTASTLQSGVSSRFSGSGSGTEFTLTISSLQPEDLATYYCQQLNSNLQGTFGQGTRVEIK
B4: S2V29-v37.2 (antibody, V domains shown)
VH: EVQLVESGGSVVQPGRALRLSCAASGITFSSFGMYWVRQAPGKGLEWLGYIAYDGSDTYYADSVKGRFTISRDNSKNTLYLQMNSLRIEDTAVYYCAKDYYPLLSYYYGLDVWGQGTTVTVSS
VL: QSVLTQPRSVSGSPGQSVTISCTGTSSDVGAYNYVSWYQQHPGKAPKFMIYDVDQRPSGVPDRFSGSKSGNTASLIISGLQAEDEADYYCSSYAGSYIWVFGGGTQLTVL
B5: S2V29-v1.2 (antibody, V domains shown)
VH: B4 VH with Y50V, D57N
VL: B4 VL
B6: S2V29-v1.1 (antibody, V domains shown)
VH: B4 VH with Y50V, D57N
VL: B4 VL with S91C

What was measured:
[1] = biological target: SARS-CoV-2 mouse/rabbit Fc-tagged RBD (SARS-CoV-2, UniProt P0DTC2 319-541)
[2] = biological target: T1, SARS-CoV-2 Wuhan-Hu-1 RBD (SARS-CoV-2 Wuhan-Hu-1, UniProt P0DTC2 328-531); assay: RBD binding affinity (SPR, see Example 5)
T1 construct: range 328-531

[3] = biological target: T1, SARS-CoV-2 Wuhan-Hu-1 RBD; assay: BLI, Fab on immobilized Wuhan-Hu-1 RBD (FIG. 25)
[4] = biological target: SARS-CoV-2 CH.1.1 S glycoprotein (SARS-CoV-2 CH.1.1); assay: cell-based or functional assay
[5] = biological target: T2, SARS-CoV S glycoprotein (SARS-CoV, UniProt P59594 14-1255); assay: cell-based or functional assay
[6] = biological target: T2, SARS-CoV S glycoprotein; assay: cell-based or functional assay; remark: listed apart in the source
[7] = biological target: T2, SARS-CoV S glycoprotein; assay: cell-based or functional assay; remark: listed apart in the source

Binder | IC50 (read off the curve) [1] | Kd [2] | IC50 [4] | IC50 [5] | further results
B1 | ~0.02 µg/mL | 70 pM | – | – | –
B2 | – | – | – | – | binding result [3]: binds
B3 | ~0.03 µg/mL | – | – | – | –
B4 | – | 160 pM | 0.0089 µg/mL | 6 ng·mL | FC vs S2V29-v1.2 [4]: 1.3 fold; FC vs v1.2 [5]: 116 fold; fold improvement in neutralization [6]: 100 fold; FC IC50 par/IC50 Var [7]: 21.7 fold; IC50 [7]: 0.0077 µg/mL
B5 | – | < 20 pM | 0.0112 µg/mL | 689 ng·mL | –
B6 | ~0.02 µg/mL | – | – | – | –
